Target: T1, peptide substrate MCA-RPPGFSAFK(Dnp)-OH (R&D Systems Cat. No. ES005)
T1 chain: RPPGFSAFK

B1: Neprilysin (R&D Systems, Cat. No 1182-ZNC) (protein)
chain: YDDGICKSSDCIKSAARLIQNMDATTEPCTDFFKYACGGWLKRNVIPETSSRYGNFDILRDELEVVLKDVLQEPKTEDIVAVQKAKALYRSCINESAIDSRGGEPLLKLLPDIYGWPVATENWEQKYGASWTAEKAIAQLNSKYGKKVLINLFVGTDDKNSVNHVIHIDQPRLGLPSRDYYECTGIYKEACTAYVDFMISVARLIRQEERLPIDENQLALEMNKVMELEKEIANATAKPEDRNDPMLLYNKMTLAQIQNNFSLEINGKPFSWLNFTNEIMSTVNISITNEEDVVVYAPEYLTKLKPILTKYSARDLQNLMSWRFIMDLVSSLSRTYKESRNAFRKALYGTTSETATWRRCANYVNGNMENAVGRLYVEAAFAGESKHVVEDLIAQIREVFIQTLDDLTWMDAETKKRAEEKALAIKERIGYPDDIVSNDNKLNNEYLELNYKEDEYFENIIQNLKFSQSKQLKKLREKVDKDEWISGAAVVNAFYSSGRNQIVFPAGILQPPFFSAQQSNSLNYGGIGMVIGHEITHGFDDNGRNFNKDGDLVDWWTQQSASNFKEQSQCMVYQYGNFSWDLAGGQHLNGINTLGENIADNGGLGQAYRAYQNYIKKNGEEKLLPGLDLNHKQLFFLNFAQVWCGTYRPEYAVNSIKTDVHSPGNFRIIGTLQNSAEFSEAFHCRKNSYMNPEKKCRVW
- Km [µM] (apparent Km, hydrolysis of fluorogenic peptide substrate): 3.2 µM
- Vmax: 2930 s⁻¹

Source: patent publication US20160168253
